Data as given in US20220195055A1 (SHANDONG BOAN BIOTECHNOLOGY, published 2022).
Positions count from the first letter of the chain named.

T1: CD25 on cells (SU-DHL-1 target cells; PBMC) (UniProt P01589 22-272, limits assumed)
T1 sequence (looked up): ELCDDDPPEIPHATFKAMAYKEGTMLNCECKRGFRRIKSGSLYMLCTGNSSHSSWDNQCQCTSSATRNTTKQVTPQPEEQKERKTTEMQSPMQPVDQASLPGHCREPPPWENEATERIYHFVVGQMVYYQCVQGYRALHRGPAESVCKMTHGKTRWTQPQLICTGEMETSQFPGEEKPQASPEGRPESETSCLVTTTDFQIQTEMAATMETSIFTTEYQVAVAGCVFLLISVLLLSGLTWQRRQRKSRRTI

T2: CD25 protein (Sino Biological, 10165-H08H) (UniProt P01589 22-213)
T2 construct: Bought recombinant protein; It speaks elsewhere of human CD25; also called antigen CD25; IL-2Rα
T2 sequence (looked up): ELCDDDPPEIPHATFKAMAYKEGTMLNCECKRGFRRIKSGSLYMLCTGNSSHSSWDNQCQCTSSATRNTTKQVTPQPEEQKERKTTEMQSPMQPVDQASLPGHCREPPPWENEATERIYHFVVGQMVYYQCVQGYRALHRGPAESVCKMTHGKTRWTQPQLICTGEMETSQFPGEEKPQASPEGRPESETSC

B1: CD25Q11-BA422-IgG1 (antibody, V domains shown)
VH: QVQLVQSGAEVKKPGSSVKVSCKASGGTFSSSAISWVRQAPGQGLDWMGRIIPLLNIADYAQKFQGRVTFTADKSTNTAYMELSSLRSEDTAVYYCARDGSGYDSNYWYFDLWGRGTLVTVSS
VL: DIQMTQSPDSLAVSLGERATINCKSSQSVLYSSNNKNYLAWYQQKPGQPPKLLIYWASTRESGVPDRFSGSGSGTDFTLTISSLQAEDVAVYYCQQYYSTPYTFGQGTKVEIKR
notes: IgG1 expressed in HEK293
B2: CD25Q11-BA428-IgG1 (antibody, V domains shown)
VH: QVQLVQSGAEVKKPGESLKISCKGSGYSFTNYWIVWVRQMPGKGLEWMGIISPGDSTTRYSPSFQGQVTFSADKSISTAYLQWSSLKASDTAMYYCAIGPYYLEYWGQGTLVTVSS
VL: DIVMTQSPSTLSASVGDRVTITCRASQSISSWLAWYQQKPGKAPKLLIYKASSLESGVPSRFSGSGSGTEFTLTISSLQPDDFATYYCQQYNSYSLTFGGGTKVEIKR
notes: IgG1 expressed in HEK293
B3: CD25Q2-BA9-IgG1 (antibody, V domains shown)
VH: QVQLQQWGAGLLKPSETLSLTCAVYGGSFSGYYWSWIRQPPGKGLEWIGEIDHSGSTIYNPSLKSRVTISLDTSKNQFSLKLSSVTAADTALYYCARGEAFDIWGQGTMVTVSS
VL: DIVMTQSPSTLSASVGDRVTITCRASQSLRSYLAWYQQKPGKAPKLLIYKASSLESGVPSRFSGSGSGTEFTLTISSLQPDDFATYYCQQYNSYSWTFGQGTKVEIKR
notes: IgG1 expressed in HEK293; also called CD25Q-BA9-IgG1
B4: CD25Q11-BA402-IgG1 (antibody, V domains shown)
VH: B2 VH with T30S, V35A, S52Y, T57A, F70I, S77N, K87R, I98R, L103F
VL: B3 VL with I21L, L29I, R30S, S53T, Q90H, W96V, Q100G
notes: IgG1 expressed in HEK293
B5: CD25Q11-BA410-IgG1 (antibody, V domains shown)
VH: B3 VH with Y32H, P40S, S56N, T57A, L71I, L92V, I103L
VL: not shown
notes: IgG1 expressed in HEK293
B6: CD25Q14-CA705-IgG1 (antibody, V domains shown)
VH: B2 VH with Q1E, T30A, S52Y, G54D, T57E, A97T, I98R, L103S, E104D
VL: DIQMTQSPSTLSASVGDRVSITCRASQSIGSWLAWYQQKPGKAPKLLIFEASNLESGVPSRFSGSGSGTEFTLTISNLQPDDFATYYCQQYNSYSLTFGGGTKVEIKR
notes: IgG1 expressed in HEK293
B7: CD25Q3-BA125-IgG1 (antibody, V domains shown)
VH: B2 VH with Q1E, T30A, S52Y, G54D, T57E, A97T, I98R, L103S, E104D
VL: B3 VL with V3Q, S28I, L29I, R30S, S31G, T69A, S95T
notes: IgG1; also called CD25Q2-BA125
B8: CD25Q14-BA443-IgG1 (antibody, V domains shown)
VH: B2 VH with Q1E, T30S, V35G, R59K, I76T, K87Q, A97V, I98R, E104D
VL: DIQMTQSPSTLSASVGDRVTITCRASQSVSGYLAWYQQKPGKAPKLLIYKTSSLESGVPSRFSGSGSGTDFTLTISSLQAEDVAVYYCQQYYSTPWTFGQGTKVEIKR
notes: IgG1 expressed in HEK293
B9: CD25Q14-BA458-IgG1 (antibody, V domains shown)
VH: B2 VH with Q1E, T30S, V35G, R59K, I76T, K87Q, A97V, I98R, E104D
VL: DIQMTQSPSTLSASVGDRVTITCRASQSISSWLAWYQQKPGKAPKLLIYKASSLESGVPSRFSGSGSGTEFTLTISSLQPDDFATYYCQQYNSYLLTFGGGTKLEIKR
notes: IgG1 expressed in HEK293
B10: CD25Q11-BA415-IgG1 (antibody, V domains shown)
VH: QVQLVQSGTEVKKPGESLKISCEGVGYSFTTYWIGWVRQMPGKGLEWMGIIYPGDSITRYSPSFQGQVTISADKSINTAYLQWSSLMASDTAMYYCVRGPHWGDYWGQGTLVTVSS
VL: B3 VL with V3Q, L29I, R30S, S31T, Y32W, T85A, N92S
notes: IgG1 expressed in HEK293
B11: CD25Q14-CA721-IgG1 (antibody, V domains shown)
VH: B2 VH with T30A, S52Y, G54D, T57E, A97T, I98R, L103S, E104D
VL: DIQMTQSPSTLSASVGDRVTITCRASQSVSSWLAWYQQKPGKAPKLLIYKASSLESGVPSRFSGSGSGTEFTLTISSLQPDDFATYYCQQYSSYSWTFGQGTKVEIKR
notes: IgG1 expressed in HEK293
B12: CD25Q14-CA707-IgG1 (antibody, V domains shown)
VH: B2 VH with Q1E, T30S, V35G, R59K, I76T, K87Q, A97V, I98R, E104D
VL: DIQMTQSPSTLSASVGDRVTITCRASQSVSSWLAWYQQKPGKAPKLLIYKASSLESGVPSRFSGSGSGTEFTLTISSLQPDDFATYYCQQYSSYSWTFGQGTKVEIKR
notes: IgG1 expressed in HEK293
B13: CD25Q11-CA36-IgG1 (antibody, V domains shown)
VH: QVQLVQSGAEVKQPGSSVKVSCKTSGGTFGSSAINWVRQAPGQGLEWMGRIIPIFGVSNFAQKFQGRVTITADKSTNTAYMELSSLRSEDTAVYYCARDGSGYDSNYWYFDLWGRGTLVTVSS
VL: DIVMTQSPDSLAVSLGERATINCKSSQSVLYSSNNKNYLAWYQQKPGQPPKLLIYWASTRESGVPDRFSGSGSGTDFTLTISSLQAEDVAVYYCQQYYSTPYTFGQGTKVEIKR
notes: IgG1 expressed in HEK293
B14: CD25Q14-BA448-IgG1 (antibody, V domains shown)
VH: EVQLVQSGAEVKKPGESLKISCKGSGYNFANYWIVWVRQMPGKGLEWMGITYPDDSETRYSPSFQGQVTFSADKSISTAYLQWSSLKASDTAMYYCTRGPYYSDYWGQGTLVTVSS
VL: B3 VL with V3Q, L29I, R30S, Y32W, N92D, S93R, Y94F
notes: IgG1; The VH is copied as printed. 'YVVGQG' near its end may be a misprint of 'YWGQG'
B15: CD25Q11-BA406-IgG1 (antibody, V domains shown)
VH: B2 VH with Q1E, V35A, S52Y, T57V, F70I, S77N, K87R, I98R, L103F
VL: DIVMTQSPSTLSASVGDRVTITCRASQSISSFLAWYQQKPGRAPELLIYKASTLESRVPSRFSGSGSGTEFTLTISSLQPEDFATYYCQQYKSFSWTVGQGTKVEIKR
notes: IgG1 expressed in HEK293

molecular target: T1, CD25 on cells (SU-DHL-1 target cells; …); test: cell-based or functional assay

Binder	EC50 of simulated killing activity (Jurkat effector reporter cells, SU-DHL-1 target cells, luminescence)
B1	836 ng/mL
B2	217 ng/mL
B3	236 ng/mL
B4	443 ng/mL
B5	215 ng/mL
B6	409 ng/mL
B7	251 ng/mL

molecular target: T1, CD25 on cells (SU-DHL-1 target cells; …); test: cell-based or functional assay; remark: another data set of the same source

Binder	EC50 of simulated killing activity (Jurkat effector reporter cells, SU-DHL-1 target cells, luminescence)
B8	360 ng/mL
B9	266 ng/mL
B10	233 ng/mL
B11	288 ng/mL
B12	248 ng/mL

molecular target: T1, CD25 on cells (SU-DHL-1 target cells; …); test: cell-based or functional assay; remark: another data set of the same source

% PSTAT5 in CD3 positive T cells of PBMC after IL2, with 10 µg/mL antibody	Binder
18.1%	B1
26.1%	B3
16.8%	B5

molecular target: T2, CD25 protein (Sino Biological, …); test: SPR (BIAcore 8K); antibody captured by anti-human IgG Fc, CD25 protein as analyte, 1:1 model
Method: Antibody binding kinetics uses BIAcore8K instrument based on surface plasmon resonance (SRP) technology to measure. Anti-human IgG antibody amino was coupled to a CMS biosensor chip by the GE anti Human IgG Fc amino coupling kit (GE, cat # BR-1008-39) to obtain approximately 1000 response units (RU). For kinetic measurements, the CD25 protein (Sino Biological, 10165-H08H) was diluted 2-fold continuously with HBS-EP+1×(GE, BR-1008-26) buffer, starting at 50 nM, being diluted 2-fold for 4 concentration gradients and setting 0 concentration. The antibody to be detected: 2 μg/ml, sample injection time 70 s, flow rate 5 μL/min, stable for 5 s; CD25 protein: binding for 60 s, flow rate 30 μL/min, dissociation for 450 s; regeneration: regeneration was performed for 30 s with 3M MgCl₂ buffer, Startup 3 times. The association constant (ka) and dissociation constant (kd) were calculated using a simple one-to-one Languir binding model (BIAcore Evaluation Software version 3.2), and the equilibrium dissociation constant (KD) was calculated by the ratio kd/ka.

Kd	koff	kon	Binder
1480 pM	0.000201 s⁻¹	136000 M⁻¹ s⁻¹	B8
596 pM	0.000216 s⁻¹	362000 M⁻¹ s⁻¹	B9
379 pM	0.00021 s⁻¹	555000 M⁻¹ s⁻¹	B2
1610 pM	9.66e-05 s⁻¹	60200 M⁻¹ s⁻¹	B13
614 pM	0.000199 s⁻¹	323000 M⁻¹ s⁻¹	B10
843 pM	0.000586 s⁻¹	696000 M⁻¹ s⁻¹	B3
607 pM	0.000212 s⁻¹	350000 M⁻¹ s⁻¹	B4
4810 pM	0.00674 s⁻¹	1.4e+06 M⁻¹ s⁻¹	B5
536 pM	0.000365 s⁻¹	680000 M⁻¹ s⁻¹	B11
1970 pM	0.000752 s⁻¹	381000 M⁻¹ s⁻¹	B6
2850 pM	0.000944 s⁻¹	331000 M⁻¹ s⁻¹	B12
431 pM	0.000301 s⁻¹	699000 M⁻¹ s⁻¹	B7
904 pM	0.000531 s⁻¹	587000 M⁻¹ s⁻¹	B14

molecular target: T2, CD25 protein (Sino Biological, …); test: ELISA; CD25 protein coated in a dilution series, antibody at one fixed concentration, anti-human IgG/HRP
Text: (§1) The results are shown in FIG. 2A to FIG. 2E and Table 2 to Table 6.

EC50	Binder
3.33 ng/mL	B3
0.674 ng/mL	B4
1.61 ng/mL	B7

molecular target: T2, CD25 protein (Sino Biological, …); test: as above; remark: another data set of the same source
Text: as §1

EC50	Binder
2.41 ng/mL	B13
0.941 ng/mL	B10
16.8 ng/mL	B5
0.651 ng/mL	B15
4.77 ng/mL	B6

molecular target: T2, CD25 protein (Sino Biological, …); test: as above; remark: another data set of the same source
Text: as §1

EC50	Binder
1.3 ng/mL	B1
1.06 ng/mL	B8
1 ng/mL	B9
0.597 ng/mL	B2
2.68 ng/mL	B14

molecular target: T2, CD25 protein (Sino Biological, …); test: as above; remark: another data set of the same source
Text: as §1

EC50	Binder
3.25 ng/mL	B11
6.42 ng/mL	B12
